We go through two molecules from article PMC5395218, “Biochemical and structural investigations on phosphoribosylpyrophosphate synthetase from Mycobacterium smegmatis” (PLoS ONE, 2017).

Series [1] addresses T1, phosphoribosylpyrophosphate synthetase (MsPrsA) (Mycolicibacterium smegmatis, UniProt A0R3C8).
T1 construct: gene prs; recombinant MsPrsA, hexamer
T1 sequence (A0R3C8 1-326): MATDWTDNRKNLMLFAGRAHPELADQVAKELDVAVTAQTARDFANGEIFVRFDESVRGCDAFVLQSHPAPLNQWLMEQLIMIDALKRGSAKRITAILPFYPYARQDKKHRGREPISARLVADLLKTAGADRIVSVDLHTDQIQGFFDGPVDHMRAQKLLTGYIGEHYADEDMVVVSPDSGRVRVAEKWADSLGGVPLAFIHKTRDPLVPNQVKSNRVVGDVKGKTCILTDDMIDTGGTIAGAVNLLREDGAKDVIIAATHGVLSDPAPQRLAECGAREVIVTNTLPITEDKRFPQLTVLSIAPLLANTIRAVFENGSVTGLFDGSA
Kind of series: OPRT-coupled spectrophotometric assay, dose response on purified enzyme. It is filed as biochemical.

Substrate in the series “purified protein”: Nc1ncnc2c1ncn2[C@@H]1O[C@H](COP(=O)(O)OP(=O)(O)OP(=O)(O)O)[C@@H](O)[C@H]1O
Kind of series: purified protein. The format is biochemical, Mycolicibacterium smegmatis. The conditions noted are these: Mg2+, inorganic phosphate.

Series [2] deals with the molecule itself. Kind of series: SEC; analytical gel filtration on Sephacryl S200HR 16/60, MsPrsA 1 mg/ml in Tris-HCl 20mM pH 8.0, NaCl 50mM; column calibrated with Blue Dextrane, catalase, aldolase, albumin, ovoalbumin; elution volume consistent with about 221 KDa. A general note: Size exclusion chromatography separates by hydrodynamic size, large species first.

By IC50 is commonly meant the point on the concentration scale where inhibition reaches its midpoint. For `Nc1ncnc2c1ncn2[C@@H]1O[C@H](COP(=O)(O)OP(=O)(O)O)[C@@H](O)[C@H]1O` [ADP], the IC50 in series [1] was 174 ± 46 µM.

B1: Mycobacterium smegmatis phosphoribosylpyrophosphate synthetase (PrsA) (enzyme, M. smegmatis mc2155, UniProt A0R3C8 1-326, looked up)
chain: MATDWTDNRKNLMLFAGRAHPELADQVAKELDVAVTAQTARDFANGEIFVRFDESVRGCDAFVLQSHPAPLNQWLMEQLIMIDALKRGSAKRITAILPFYPYARQDKKHRGREPISARLVADLLKTAGADRIVSVDLHTDQIQGFFDGPVDHMRAQKLLTGYIGEHYADEDMVVVSPDSGRVRVAEKWADSLGGVPLAFIHKTRDPLVPNQVKSNRVVGDVKGKTCILTDDMIDTGGTIAGAVNLLREDGAKDVIIAATHGVLSDPAPQRLAECGAREVIVTNTLPITEDKRFPQLTVLSIAPLLANTIRAVFENGSVTGLFDGSA
notes: Phosphoribosylpyrophosphate synthetase (PrsA) of M. smegmatis mc2155; the crystal model holds Arg9-Gly316 without Arg204-Lys213; pCold I is recalled to add an N-terminal translation enhancing element, His6 and a Factor Xa site; also called MsPrsA; M. smegmatis PrsA
For orientation: Vmax means the top rate of the reaction or transport when substrate is in excess. One may read the kcat as the number of substrate molecules converted per active site and unit of time at saturation. The term kcat/Km denotes the turnover number divided by the Michaelis constant. Usually stoichiometry N stands for a count of units in the complex or per binding partner. As for B1, in the series “purified protein”, the K0.5 is given as 0.058 ± 0.005 mM, the maximal velocity (Vmax) worked out at 0.006 µmol/min, the kcat worked out at 83.5 ± 4.1 s⁻¹ and the catalytic efficiency (kcat/Km) was found to be 1.44e+06 ± 53800 M⁻¹ s⁻¹. In series [2], the “stoichiometry N” value came out at 6.
